Source: the supplement of paper PMC10567573

B1: FBXO3 (parent)
chain: AGGFQQRQGLKYCLPLTFCIHTGL

Variants of: B1
Test: protein stability index of a GFP-peptide fusion (GPS, HEK-293T) (PSI 1-6); higher = more stable
Conditions: c terminus: a fixed tail appended
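Also: lentivirally expressed fusions sorted by FACS into six bins by GFP to DsRed ratio, PSI derived from sequencing read proportions per bin multiplied by bin number.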

Point of comparison: AGGFQQRQGLKYCLPLTLCIHTGL [F18L], protein stability index 3.1. Against it:
- AGGFQQRQGLKYCPPLTFCIHTGL [L14P] — lower, 1.56
- AGGFQQRQGLKYCCPLTFCIHTGL [L14C] — higher, 3.66
- AGGFQQRQGLKYCHPLTFCIHTGL [L14H] — lower, 1.75
- AGGFQQRQGLKYCGPLTFCIHTGL [L14G] — higher, 3.59
- AGGFQQRQGLKYCKPLTFCIHTGL [L14K] — lower, 2.73
- AGGFQQRQGLKYCSPLTFCIHTGL [L14S] — lower, 2.67
- AGGFQQRQGLKYCIPLTFCIHTGL [L14I] — higher, 4.28
- AGGFQQRQGLKYCAPLTFCIHTGL [L14A] — lower, 2.7
- AGGFQQRQGLKYCDPLTFCIHTGL [L14D] — lower, 1.78
- AGGFQQRQGLKYCLPLTFCIETGL [H21E] — lower, 1.98
- AGGFQQRQGLKYCLPLTFCITTGL [H21T] — lower, 2.59
- AGGFQQRQGLKYCLPLTFCIKTGL [H21K] — lower, 2.03
- AGGFQQRQGLKYCLPLTFCIITGL [H21I] — lower, 2.36
- AGGFQQRQGLKYCLPLTFCIYTGL [H21Y] — higher, 3.41
- AGGFQQRQGLKYCLPLTFCIMTGL [H21M] — lower, 1.72
- AGGFQQRQGLKYCLPLTFCIDTGL [H21D] — lower, 2.99
- AGGFQQRQGLKYCLPLTFCIVTGL [H21V] — higher, 3.83
- AGGFQQRQGLKYCLPLTFCIWTGL [H21W] — lower, 2.15
- AGGFQARQGLKYCLPLTFCIHTGL [Q6A] — lower, 2.26
- AGGFQTRQGLKYCLPLTFCIHTGL [Q6T] — lower, 2.67
- AGGFQNRQGLKYCLPLTFCIHTGL [Q6N] — higher, 3.27
- AGGFQVRQGLKYCLPLTFCIHTGL [Q6V] — lower, 2.68
- AGGFQRRQGLKYCLPLTFCIHTGL [Q6R] — lower, 2.77
- AGGFQSRQGLKYCLPLTFCIHTGL [Q6S] — lower, 2.81
- AGGFQLRQGLKYCLPLTFCIHTGL [Q6L] — higher, 3.23
- AGGFQMRQGLKYCLPLTFCIHTGL [Q6M] — lower, 2.1
- AGGFQQRQGLKYCLMLTFCIHTGL [P15M] — lower, 2.93
- AGGFQQRQGLKYCLSLTFCIHTGL [P15S] — lower, 2.81
- AGGFQQRQGLKYCLQLTFCIHTGL [P15Q] — lower, 2.27
- AGGFQQRQGLKYCLFLTFCIHTGL [P15F] — lower, 2.95
- AGGFQQRQGLKYCLALTFCIHTGL [P15A] — lower, 2.77
- AGGFQQRQGLKYCLGLTFCIHTGL [P15G] — lower, 2.33
- ANGFQQRQGLKYCLPLTFCIHTGL [G2N] — lower, 2.94
- AYGFQQRQGLKYCLPLTFCIHTGL [G2Y] — lower, 2.4
- AVGFQQRQGLKYCLPLTFCIHTGL [G2V] — lower, 2.97
- ADGFQQRQGLKYCLPLTFCIHTGL [G2D] — lower, 1.68
- ARGFQQRQGLKYCLPLTFCIHTGL [G2R] — lower, 2.59
- AFGFQQRQGLKYCLPLTFCIHTGL [G2F] — lower, 2.79
- AEGFQQRQGLKYCLPLTFCIHTGL [G2E] — lower, 2.36
- AGGFQQRQGDKYCLPLTFCIHTGL [L10D] — lower, 2.84
- AGGFQQRQGVKYCLPLTFCIHTGL [L10V] — lower, 2.85
- AGGFQQRQGSKYCLPLTFCIHTGL [L10S] — higher, 3.66
- AGGFQQRQGNKYCLPLTFCIHTGL [L10N] — lower, 2.56
- AGGFQQRQGKKYCLPLTFCIHTGL [L10K] — higher, 3.64
- AGGFQQRQGPKYCLPLTFCIHTGL [L10P] — lower, 2.2
- AGGFQQRQGYKYCLPLTFCIHTGL [L10Y] — higher, 3.49
- AGGFQQRQGCKYCLPLTFCIHTGL [L10C] — lower, 2.26
- AGGFQQRQGLKYCLPLTFCIHTQL [G23Q] — lower, 3.06
- AGGFQQRQGLKYCLPLTFCIHTEL [G23E] — lower, 2.4
- AGGFQQRQGLKYCLPLTFCIHTVL [G23V] — the same, 3.1
- AGGFQQRQGLKYCLPLTFCIHTCL [G23C] — higher, 3.16
- AGGFQQRQGLKYCLPLTFCIHTPL [G23P] — lower, 3.02
- AGGFQQRQGLKYCLPLTFCIHTDL [G23D] — lower, 2.58
- AGGFQQRQGLKYTLPLTFCIHTGL [C13T] — higher, 3.22
- AGGFQQRQGLKYALPLTFCIHTGL [C13A] — lower, 2.85
- AGGFQQRQGLKYHLPLTFCIHTGL [C13H] — lower, 2.57
- AGGFQQRQGLKYILPLTFCIHTGL [C13I] — lower, 2.94
- AGGFQQRQGLKYFLPLTFCIHTGL [C13F] — lower, 2.94
- AGGFQQRQGLKYELPLTFCIHTGL [C13E] — the same, 3.1
- AGGFQQRQGLKYDLPLTFCIHTGL [C13D] — lower, 2.67
- AGGFQQRQGLKYCLPMTFCIHTGL [L16M] — higher, 4.03
- AGGFQQRQGLKYCLPFTFCIHTGL [L16F] — higher, 3.56
- AGGFQQRQGLKYCLPKTFCIHTGL [L16K] — lower, 2.95
- AGGFQQRQGLKYCLPDTFCIHTGL [L16D] — lower, 1.68
- AGGFQQRQGLKYCLPSTFCIHTGL [L16S] — lower, 2.17
- AGGFQQRQGLKYCLPRTFCIHTGL [L16R] — lower, 2.91
- AGGFQQRQGLKYCLPPTFCIHTGL [L16P] — lower, 2.75
- AGGFQQRQGLKYCLPNTFCIHTGL [L16N] — lower, 1.51
- AGGFQQRQGLKYCLPHTFCIHTGL [L16H] — lower, 2.58
- AGGFQQRQGLKYCLPLTICIHTGL [F18I] — lower, 2.93
- AGGFQQRQGLKYCLPLTPCIHTGL [F18P] — lower, 1.68
- AGGFQQRQGLKYCLPLTTCIHTGL [F18T] — lower, 1.19
- AGGFQQRQGLKYCLPLTNCIHTGL [F18N] — lower, 1.95
- AGGFQQRQGLKYCLPLTQCIHTGL [F18Q] — lower, 2.47
- AGGFQQRQGLKYCLPLTVCIHTGL [F18V] — higher, 4.06
- AGGFQQRQGLKYCLPLTECIHTGL [F18E] — lower, 2.36
- AGGFQQRQGLKYCLPLTRCIHTGL [F18R] — lower, 1.05
- YGGFQQRQGLKYCLPLTFCIHTGL [A1Y] — lower, 3.08
- RGGFQQRQGLKYCLPLTFCIHTGL [A1R] — lower, 2.39
- DGGFQQRQGLKYCLPLTFCIHTGL [A1D] — lower, 2.89
- MGGFQQRQGLKYCLPLTFCIHTGL [A1M] — higher, 3.13
- TGGFQQRQGLKYCLPLTFCIHTGL [A1T] — higher, 3.47
- SGGFQQRQGLKYCLPLTFCIHTGL [A1S] — lower, 2.65
- IGGFQQRQGLKYCLPLTFCIHTGL [A1I] — lower, 2
- LGGFQQRQGLKYCLPLTFCIHTGL [A1L] — lower, 2.46
- KGGFQQRQGLKYCLPLTFCIHTGL [A1K] — lower, 1.87
- AGGFQQRQGLKYCLPLTFCIHTGK [L24K] — lower, 1.66
- AGGFQQRQGLKYCLPLTFCIHTGE [L24E] — higher, 3.16
- AGGFQQRQGLKYCLPLTFCIHTGT [L24T] — lower, 2.42
- AGGFQQRQGLKYCLPLTFCIHTGC [L24C] — lower, 2.15
- AGGFQQRQGLKYCLPLTFCIHTGM [L24M] — lower, 2.99
- AGGFQQRQGLKYCLPLTFCIHTGD [L24D] — lower, 2.42
- AGGFQQRQGLKYCLPLTFCAHTGL [I20A] — lower, 1.89
